The target of one assay is T1, sGP (Ebola virus (EBOV), UniProt P60170 33-324).
T1 construct: also called secreted glycoprotein
Put plainly: ELISA on coated truncated GP.

The next assay has as its target T2, SUDV GP (Sudan ebolavirus (SUDV), UniProt Q7T9D9 33-637).
T2 construct: also called Sudan ebolavirus GP
T2 sequence: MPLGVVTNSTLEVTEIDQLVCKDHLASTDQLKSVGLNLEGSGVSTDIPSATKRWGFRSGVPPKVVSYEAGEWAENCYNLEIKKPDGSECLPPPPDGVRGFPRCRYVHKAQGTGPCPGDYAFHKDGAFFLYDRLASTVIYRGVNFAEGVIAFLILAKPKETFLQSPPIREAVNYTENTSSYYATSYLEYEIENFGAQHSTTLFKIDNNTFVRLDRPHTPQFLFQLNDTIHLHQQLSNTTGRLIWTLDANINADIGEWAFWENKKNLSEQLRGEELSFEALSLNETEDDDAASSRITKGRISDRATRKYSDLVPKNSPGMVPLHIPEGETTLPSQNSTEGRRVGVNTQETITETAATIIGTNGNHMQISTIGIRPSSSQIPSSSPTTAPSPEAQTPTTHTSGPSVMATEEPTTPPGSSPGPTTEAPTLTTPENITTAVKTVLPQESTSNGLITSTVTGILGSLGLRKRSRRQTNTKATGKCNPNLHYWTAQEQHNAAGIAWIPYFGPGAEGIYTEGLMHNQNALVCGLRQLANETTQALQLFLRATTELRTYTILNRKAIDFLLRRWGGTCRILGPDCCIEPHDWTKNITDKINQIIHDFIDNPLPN
Put plainly: ELISA, purified antibody on coated GP (1 µg/mL). (In general: An ELISA detects its analyte on a solid surface through an enzyme-linked reagent.)

A further assay has as its target T3, RESTV GP (RESTV, UniProt Q66799 34-638).
T3 sequence: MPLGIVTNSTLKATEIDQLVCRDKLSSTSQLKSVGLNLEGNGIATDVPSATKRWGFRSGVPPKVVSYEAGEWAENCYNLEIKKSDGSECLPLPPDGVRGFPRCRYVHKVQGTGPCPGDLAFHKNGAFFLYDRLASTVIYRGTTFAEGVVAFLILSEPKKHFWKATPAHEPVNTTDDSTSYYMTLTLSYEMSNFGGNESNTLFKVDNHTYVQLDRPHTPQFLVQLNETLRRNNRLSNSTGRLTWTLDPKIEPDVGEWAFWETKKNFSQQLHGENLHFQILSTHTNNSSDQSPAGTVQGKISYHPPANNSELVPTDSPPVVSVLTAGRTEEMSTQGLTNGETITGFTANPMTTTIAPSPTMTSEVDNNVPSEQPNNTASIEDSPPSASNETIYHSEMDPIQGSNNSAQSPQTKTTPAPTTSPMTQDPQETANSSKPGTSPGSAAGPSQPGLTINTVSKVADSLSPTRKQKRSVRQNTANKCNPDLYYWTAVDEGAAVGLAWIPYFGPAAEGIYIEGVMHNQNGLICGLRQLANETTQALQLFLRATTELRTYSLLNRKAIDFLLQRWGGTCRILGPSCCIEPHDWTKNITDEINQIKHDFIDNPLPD
Put plainly: ELISA, purified antibody on coated GP (1 µg/mL).

In assay [1] the target is T4, EBOV GP on EBOV-eGFP-Mayinga authentic virus (Ebola virus (EBOV), Mayinga, UniProt Q05320 33-676).
T4 sequence: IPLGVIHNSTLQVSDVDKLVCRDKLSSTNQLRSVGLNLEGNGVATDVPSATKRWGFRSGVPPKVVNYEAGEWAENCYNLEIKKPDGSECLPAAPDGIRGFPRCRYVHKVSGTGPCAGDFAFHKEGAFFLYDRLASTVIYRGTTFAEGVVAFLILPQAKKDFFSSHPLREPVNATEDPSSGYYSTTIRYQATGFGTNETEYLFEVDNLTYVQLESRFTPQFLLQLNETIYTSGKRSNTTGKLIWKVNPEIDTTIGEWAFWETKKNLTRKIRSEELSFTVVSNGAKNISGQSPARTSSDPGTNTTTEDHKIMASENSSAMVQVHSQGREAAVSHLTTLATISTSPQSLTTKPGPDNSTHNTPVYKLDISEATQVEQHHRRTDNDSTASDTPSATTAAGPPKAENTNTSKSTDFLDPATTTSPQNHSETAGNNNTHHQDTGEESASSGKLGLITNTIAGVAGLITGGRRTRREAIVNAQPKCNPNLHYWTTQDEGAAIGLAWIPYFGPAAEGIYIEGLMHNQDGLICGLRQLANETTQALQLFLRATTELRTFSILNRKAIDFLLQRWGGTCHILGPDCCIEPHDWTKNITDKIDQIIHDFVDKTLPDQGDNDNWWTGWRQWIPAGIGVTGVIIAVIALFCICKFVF
Nature of the assay: cell-based or functional assay.

B1: monoclonal antibody 2G1 (antibody, V domains shown)
VH: EVQLVESGGGLVKRGGSLRLSCVVSGYTFGGYSMHWVRQAPGKGLEWVSGISSSSYYKYYADSVKGRFTISRDNAKNSLYLQMNSLRAEDTAVYYCARDMGYCSGGSCPNFDFWGQGTTVTVSS
VL: DIQMTQSPSSLSASVGDRVTITCRTSQSISNYLNWYQQIPGKAPKLLISTASNLHSGVSSRFSGSGSGTHFTLTISSLQPEDFATYYCQQSYSTPSFGQGTKVEIKR
notes: also called 2G1-WT; wild-type 2G1
With B1, the binding result in the assay with sGP was “no binding”. The half-maximal effective concentration (EC50) (usually the concentration giving half of the maximal effect) with SUDV GP was determined as 0.0048 µg/mL; with RESTV GP, 0.026 µg/mL.

B2: MIL77-1 (antibody, V domains shown)
VH: EVALEESGGGLMQPGGSMKLSCVASGFTFSNYWMNWVRQSPEKGLEWVAEIRLKSNNYATHYAESVKGRFTISRDDSKRSVYLQMNTLRAEDTGIYYCTRGNGNYRAMDYWGQGTSVTVSS
VL: DIQMTQSPASLSVSVGETVSITCRASENIYSSLAWYQQKQGKSPQLLVYSATILADGVPSRFSGSGSGTQYSLKINSLQSEDFGTYYCQHFWGTPYTFGGGTKLEIKR
As for B2, the “IC50, EBOV-eGFP-Mayinga authentic virus neutralization test” value in assay [1] is 3.12 µg/mL.

The values are drawn from patent US20240254201A1 (ACADEMY OF MILITARY MEDICAL SCIENCE PLA, published 2024).
